Key:
Nucleocapsid protein N [1] = target: T1, Nucleocapsid protein N (SARS-CoV-2, UniProt P0DTC9 1-419); assay: EMSA; conditions: protein: recombinant; tags: N-terminal His6-TEV, tag removed; chain copies: 2; single strand
Nsp3 Ubl1 [2] = target: T2, Nsp3 Ubl1 (SARS-CoV-2, UniProt P0DTD1 819-929); assay: EMSA; 3.8 uM Ubl1; conditions: protein: recombinant; tags: His tag removed by thrombin; single strand
Nucleocapsid protein N [3] = target: T1, Nucleocapsid protein N; assay: EMSA; 3.8 uM N, 2.5 uM DNA; displaced by Ubl1; conditions: protein: recombinant; tags: N-terminal His6-TEV, tag removed; chain copies: 2; single strand
Nsp3 Ubl1 [4] = target: T2, Nsp3 Ubl1; assay: MST; Ubl1 1, 5, 10 uM; conditions: protein: recombinant; tags: His tag removed by thrombin; label: 5'-Cy5; single strand
Nucleocapsid protein N [5] = target: T1, Nucleocapsid protein N; assay: MST; no Ubl1; 40 nM RNA; conditions: protein: recombinant; tags: N-terminal His6-TEV, tag removed; chain copies: 2; label: 5'-Cy5; single strand

UGUUCUCUAAACGAACU (ssRNA) [17-mer TRS ssRNA]
binding result (Nucleocapsid protein N [1]): binds
binding result (Nsp3 Ubl1 [2]): no binding

TGTTCTCTAAACGAACT (ssDNA) [17-mer TRS ssDNA]
binding result (Nsp3 Ubl1 [2]): no binding
binding result (Nucleocapsid protein N [3]): binds

UCUAAACGAAC (ssRNA) [11-mer TRS ssRNA]
binding result (Nsp3 Ubl1 [4]): no binding
Kd (Nucleocapsid protein N [5]): 5.1 ± 0.6 µM

Source: article PMC9938351, “Structural insights into ribonucleoprotein dissociation by nucleocapsid protein interacting with non-structural protein 3 in SARS-CoV-2”
